This data set deals with the molecule itself. The data set can be described thus: crystal structure; hanging drop vapor diffusion; protein 7 mg/ml in 50 mM Tris pH 8.0, 100 mM NaCl; precipitant 0.1 M MES pH 6.5, 2.0 M potassium acetate; 2.1Å native dataset, phased from a Se-Met SAD dataset.

The results in this text go back to PMC3484135, “A Divalent Ion Is Crucial in the Structure and Dominant-Negative Function of ID Proteins, a Class of Helix-Loop-Helix Transcription Regulators” (PLoS ONE, 2012).

A word on the stoichiometry N: it is the number of molecules, sites or subunits per partner or assembly.

B1: ID2 HLH (residues 24–82) with a C-terminal 14 amino acid stabilising polypeptide (domain or fragment, human)
chain: RSKTPVDDPMSLLYNMNDCYSKLKELVPSIPQNKKVSKMEILQHVIDYILDLQIALDSHLKPSFLVQSGDIAS
notes: ID2, human, HLH domain, residues 24–82, cloned from full-length cDNA (Genecopoeia Z0585); C-terminal 14 amino acid polypeptide added to increase stability; Expressed from pDest-565 with a TEV site at the N terminus of ID2 HLH; The native crystal is called ID2-Nterm-HLH in the methods, and a Se-Met form (ID2-HLH-Se-Met) was used for phasing; also called wild type ID2; ID2 WT; source: E. coli …
For B1, the “stoichiometry N” value worked out at 2.
